One molecule from paper doi:10.1101/2025.05.13.653815, “Roles of the MO25 protein Pmo25 in contractile-ring stability and localization of the NDR kinase Sid2 during cytokinesis” (bioRxiv, 2025) can be followed below.

The target of experiment [1] is T1, MBP-Ync13-(591-1130)-6His (S. pombe, UniProt O13683 591-1130).
T1 construct: The cloning of this truncation is not described; not shown: MBP, N-terminal, kept; His6, C-terminal, kept
T1 sequence (looked up): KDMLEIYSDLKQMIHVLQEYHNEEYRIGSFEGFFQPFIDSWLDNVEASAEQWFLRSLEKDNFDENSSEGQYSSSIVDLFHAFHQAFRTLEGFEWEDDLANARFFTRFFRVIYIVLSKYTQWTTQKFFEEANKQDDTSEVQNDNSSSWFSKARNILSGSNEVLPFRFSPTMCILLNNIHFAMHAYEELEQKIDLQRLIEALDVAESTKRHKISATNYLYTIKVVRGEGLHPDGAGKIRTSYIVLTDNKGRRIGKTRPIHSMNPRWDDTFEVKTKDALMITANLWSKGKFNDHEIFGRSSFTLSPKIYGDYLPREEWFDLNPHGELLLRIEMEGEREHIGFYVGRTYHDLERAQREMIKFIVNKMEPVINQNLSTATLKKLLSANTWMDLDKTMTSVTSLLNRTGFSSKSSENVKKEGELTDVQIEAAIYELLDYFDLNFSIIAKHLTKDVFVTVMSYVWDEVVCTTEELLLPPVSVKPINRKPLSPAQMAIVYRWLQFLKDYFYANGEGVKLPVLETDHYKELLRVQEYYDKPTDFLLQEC
The experiment can be described thus: pull-down; Kd by supernatant depletion: various concentrations of MBP-Ync13 on amylose beads with a fixed low concentration of Pmo25-(19-329)-6His, 1 h at 4°C; supernatant on SDS-PAGE, Coomassie Blue; one site binding equation. Conditions: both partners purified.

Experiment [2] deals with T2, MBP-Ync13-full length-6His (S. pombe, UniProt O13683 1-1237).
T2 construct: pET21a-MBP: MBP-TEV-GGSGGS stands before Ync13, 6xHis after it; not shown: MBP, N-terminal, kept; His6, C-terminal, kept
T2 sequence (looked up): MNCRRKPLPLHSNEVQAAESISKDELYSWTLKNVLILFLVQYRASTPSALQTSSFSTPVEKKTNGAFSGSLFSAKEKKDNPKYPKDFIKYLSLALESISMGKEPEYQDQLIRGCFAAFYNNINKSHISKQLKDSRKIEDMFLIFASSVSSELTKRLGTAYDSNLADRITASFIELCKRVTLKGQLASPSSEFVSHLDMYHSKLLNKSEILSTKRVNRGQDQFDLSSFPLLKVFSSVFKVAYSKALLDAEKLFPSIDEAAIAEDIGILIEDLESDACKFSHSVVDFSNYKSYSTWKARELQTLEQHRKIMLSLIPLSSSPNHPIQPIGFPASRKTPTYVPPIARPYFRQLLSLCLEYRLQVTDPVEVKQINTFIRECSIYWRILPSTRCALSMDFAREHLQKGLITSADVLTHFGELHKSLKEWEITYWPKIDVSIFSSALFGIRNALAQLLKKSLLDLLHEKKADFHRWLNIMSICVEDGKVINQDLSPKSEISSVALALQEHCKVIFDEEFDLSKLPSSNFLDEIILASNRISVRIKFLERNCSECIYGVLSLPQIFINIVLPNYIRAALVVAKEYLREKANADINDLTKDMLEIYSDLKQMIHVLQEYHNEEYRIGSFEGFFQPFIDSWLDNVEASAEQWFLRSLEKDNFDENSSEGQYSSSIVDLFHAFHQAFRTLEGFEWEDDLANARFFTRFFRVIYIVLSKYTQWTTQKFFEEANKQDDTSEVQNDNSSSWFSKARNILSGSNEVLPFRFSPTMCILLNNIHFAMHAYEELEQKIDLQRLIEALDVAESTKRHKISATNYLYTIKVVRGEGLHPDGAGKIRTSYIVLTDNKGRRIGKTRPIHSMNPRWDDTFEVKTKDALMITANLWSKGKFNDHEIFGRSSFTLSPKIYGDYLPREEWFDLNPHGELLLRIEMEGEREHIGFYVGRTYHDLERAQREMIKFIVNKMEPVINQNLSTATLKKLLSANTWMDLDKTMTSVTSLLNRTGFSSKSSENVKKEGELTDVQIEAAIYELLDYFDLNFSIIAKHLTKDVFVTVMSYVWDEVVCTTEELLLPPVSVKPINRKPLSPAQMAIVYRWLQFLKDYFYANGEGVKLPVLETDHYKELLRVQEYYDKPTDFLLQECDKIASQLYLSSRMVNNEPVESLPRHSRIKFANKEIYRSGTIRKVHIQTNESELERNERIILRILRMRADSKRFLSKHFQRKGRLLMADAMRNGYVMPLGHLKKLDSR
The experiment is described as above. Conditions: both partners purified.

B1: Pmo25-(19-329)-6His (domain or fragment, S. pombe, UniProt Q9P7Q8 19-329, looked up)
chain: LCDNLPKLEINNDKKKSFEEVSKCLQNLRVSLCGTAEVEPDADLVSDLSFQIYQSNLPFLLVRYLPKLEFESKKDTGLIFSALLRRHVASRYPTVDYMLAHPQIFPVLVSYYRYQEVAFTAGSILRECSRHEALNEVLLNSRDFWTFFSLIQASSFDMASDAFSTFKSILLNHKSQVAEFISYHFDEFFKQYTVLLKSENYVTKRQSLKLLGEILLNRANRSVMTRYISSAENLKLMMILLRDKSKNIQFEAFHVFKLFVANPEKSEEVIEILRRNKSKLISYLSAFHTDRKNDEQFNDERAFVIKQIERL
notes: pET21a, between the N-terminal T7 tag and the C-terminal 6xHis tag; not shown: His6, C-terminal, kept
On to B1, for which the Kd in experiment [1] worked out at 620 nM; in experiment [2], 490 nM.

In general, Kd refers to the equilibrium constant for the complex coming apart.
